{"source": "paper PMC6297355", "about": "“Myopathy associated BAG3 mutations lead to protein aggregation by stalling Hsp70 networks” (Nature Communications, 2018)", "data": [{"molecular_target": "the molecule itself", "assay": "SEC-MALS; 30 µM BAG3 solutions separated on Shodex 804, in-line DAWN HELEOS and Optilab rEX detectors", "values": [{"protein": "BAG3^P209L (recombinant) (natural protein, BAG3, human, disease mutation P209L in the second IPV motif; Forms soluble higher order oligomers by SEC-MALS; source: E. coli BL21(DE3), purified (Ni-NTA, TEV cleavage, MonoQ)) not shown", "binding result": "binds"}, {"protein": "BAG3^P209I (recombinant) (natural protein, BAG3, human, P209I; source: E. coli BL21(DE3), purified (Ni-NTA, TEV cleavage, MonoQ)) not shown", "binding result": "binds"}, {"protein": "BAG3^P209W (recombinant) (natural protein, BAG3, human, P209W; source: E. coli BL21(DE3), purified (Ni-NTA, TEV cleavage, MonoQ)) not shown", "binding result": "binds"}]}]}
